The source of these data is PMC6546054 (Genes & Development, 2019).

B1: His6IraD (wild type) (natural protein, E. coli K12, UniProt P39375 1-130, looked up)
chain: MMRQSLQAVLPEISGNKTSSLRKSVCSDLLTLFNSPHSALPSLLVSGMPEWQVHNPSDKHLQSWYCRQLRSALLFHEPRIAALQVNLKEAYCHTLAISLEIMLYHDDEPLTFDLVWDNGGWRSATLENVS

The target of series [1] is RssB (wild type) (E. coli K12) (UniProt P0AEV1). Briefly: cross-linking.
The target in series [2] is T1, RssB^(Q254A N256A) (E. coli K12, UniProt P0AEV1 1-337, Q254A | N256A).
T1 sequence (looked up): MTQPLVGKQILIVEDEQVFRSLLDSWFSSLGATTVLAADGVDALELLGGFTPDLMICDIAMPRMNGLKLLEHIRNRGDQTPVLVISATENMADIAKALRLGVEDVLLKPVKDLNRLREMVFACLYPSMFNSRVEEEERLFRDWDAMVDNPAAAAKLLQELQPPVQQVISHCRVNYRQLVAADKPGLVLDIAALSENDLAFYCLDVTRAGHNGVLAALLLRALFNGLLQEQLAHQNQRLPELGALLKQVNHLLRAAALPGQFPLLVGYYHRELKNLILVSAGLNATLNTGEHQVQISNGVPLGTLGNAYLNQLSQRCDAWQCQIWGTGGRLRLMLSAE
Briefly: pull-down.

In series [3] the target is T2, RssB^R115A (E. coli K12, UniProt P0AEV1 1-337, R115A).
T2 sequence (looked up): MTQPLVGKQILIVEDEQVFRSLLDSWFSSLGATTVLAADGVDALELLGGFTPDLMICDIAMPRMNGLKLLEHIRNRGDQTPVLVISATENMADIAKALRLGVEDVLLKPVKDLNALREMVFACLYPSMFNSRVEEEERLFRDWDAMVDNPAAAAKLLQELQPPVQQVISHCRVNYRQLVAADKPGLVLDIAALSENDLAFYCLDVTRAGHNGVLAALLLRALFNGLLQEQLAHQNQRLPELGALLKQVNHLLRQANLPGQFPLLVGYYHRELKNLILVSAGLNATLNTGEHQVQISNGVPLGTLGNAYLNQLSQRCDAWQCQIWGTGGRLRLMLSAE
Briefly: pull-down.

The target in series [4] is T3, RssB (wild type) (E. coli K12, UniProt P0AEV1 1-337).
T3 sequence (looked up): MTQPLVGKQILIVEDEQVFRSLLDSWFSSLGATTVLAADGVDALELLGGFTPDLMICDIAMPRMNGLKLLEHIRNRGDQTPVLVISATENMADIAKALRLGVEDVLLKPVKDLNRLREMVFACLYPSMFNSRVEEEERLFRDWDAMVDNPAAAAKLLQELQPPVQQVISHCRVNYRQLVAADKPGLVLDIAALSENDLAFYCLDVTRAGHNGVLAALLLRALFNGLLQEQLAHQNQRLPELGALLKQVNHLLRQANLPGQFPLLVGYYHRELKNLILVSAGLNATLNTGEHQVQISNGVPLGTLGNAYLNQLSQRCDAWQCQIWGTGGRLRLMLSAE
Briefly: pull-down.

For series [5], the target named is T4, RssB^AAA (E. coli K12, UniProt P0AEV1 1-337, E134-E137 to EAAA).
T4 sequence (looked up): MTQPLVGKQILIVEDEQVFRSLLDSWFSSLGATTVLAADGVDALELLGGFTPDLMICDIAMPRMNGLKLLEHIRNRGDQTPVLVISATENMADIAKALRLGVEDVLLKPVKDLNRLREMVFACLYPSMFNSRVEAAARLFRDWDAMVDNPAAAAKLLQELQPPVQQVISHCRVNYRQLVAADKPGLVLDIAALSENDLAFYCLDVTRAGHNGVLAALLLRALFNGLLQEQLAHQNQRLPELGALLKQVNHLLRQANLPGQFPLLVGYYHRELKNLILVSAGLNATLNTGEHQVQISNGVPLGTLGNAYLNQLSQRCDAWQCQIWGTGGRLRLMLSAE
Briefly: pull-down.

Series [6] deals with the molecule itself. Briefly: cross-linking.
Series [7] concerns the target B1. Briefly: pull-down.

The term stoichiometry N denotes the number of molecules, sites or subunits per partner or assembly. In series [1], “RssB (wild type) (from UniProt P0AEV1 1-337) (natural protein)” returned a stoichiometry N of 2.
B1: the binding result in series [2], in series [3], in series [4] and in series [5] was “binds” throughout.

B2: RssB^CC (natural protein, E. coli K12, UniProt P0AEV1 1-337, looked up)
chain: MTQPLVGKQILIVEDEQVFRSLLDSWFSCLGATTVLAADGVDALELLGGFTPDLMICDIAMPRMNGLKLLEHIRNRGDQTPVLVISATENMADIAKALRLGVEDVLLKPVKDLNRLREMVFACLYPSMFNSRVEEEERLFRDWDAMVDNPAAAAKLLQELQPPVQQVISHCRVNYRQLVAADKPGLVLDIAALSENDLAFYCLDVTRAGHNGVLAALLLRALFNGLLQCQLAHQNQRLPELGALLKQVNHLLRQANLPGQFPLLVGYYHRELKNLILVSAGLNATLNTGEHQVQISNGVPLGTLGNAYLNQLSQRCDAWQCQIWGTGGRLRLMLSAE
Take B2: in series [6], the “stoichiometry N” value was determined as 2.

B3: RssB^D104N (natural protein, E. coli K12, UniProt P0AEV1 1-337, looked up)
chain: MTQPLVGKQILIVEDEQVFRSLLDSWFSSLGATTVLAADGVDALELLGGFTPDLMICDIAMPRMNGLKLLEHIRNRGDQTPVLVISATENMADIAKALRLGVENVLLKPVKDLNRLREMVFACLYPSMFNSRVEEEERLFRDWDAMVDNPAAAAKLLQELQPPVQQVISHCRVNYRQLVAADKPGLVLDIAALSENDLAFYCLDVTRAGHNGVLAALLLRALFNGLLQEQLAHQNQRLPELGALLKQVNHLLRQANLPGQFPLLVGYYHRELKNLILVSAGLNATLNTGEHQVQISNGVPLGTLGNAYLNQLSQRCDAWQCQIWGTGGRLRLMLSAE
Take B3: the “binding relative to wild type” value in series [7] is 18 ± 3%.
